How the values were obtained:
[1] = target: dynamic microtubules grown from purified bovine brain tubulin (bovine) (UniProt Q6B856); assay: optical trap force clamp assay
[2] = target: dynamic microtubules grown from purified bovine brain tubulin (bovine) (UniProt Q6B856); assay: optical trap rupture force assay

percent of beads tracking with shortening microtubule tips under 1.5 pN [1]: 7%
median rupture strength [2]: 3.2 pN
Substance: wild-type Ndc80 complex (from UniProt P40460 1-691; P33895 1-451; Q04477 1-213; P40014 1-221)
